B1: Protein PTHB1 (Homo sapiens), Q3SYG4 (parent)
chain: MSLFKARDWWSTILGDKEEFDQGCLCLANVDNSGNGQDKIIVGSFMGYLRIFSPHPAKTGDGAQAEDLLLEVDLRDPVLQVEVGKFVSGTEMLHLAVLHSRKLCVYSVSGTLGNVEHGNQCQMKLMYEHNLQRTACNMTYGSFGGVKGRDLICIQSMDGMLMVFEQESYAFGRFLPGFLLPGPLAYSSRTDSFLTVSSCQQVESYKYQVLAFATDADKRQETEQQKLGSGKRLVVDWTLNIGEQALDICIVSFNQSASSVFVLGERNFFCLKDNGQIRFMKKLDWSPSCFLPYCSVSEGTINTLIGNHNNMLHIYQDVTLKWATQLPHIPVAVRVGCLHDLKGVIVTLSDDGHLQCSYLGTDPSLFQAPNVQSRELNYDELDVEMKELQKIIKDVNKSQGVWPMTEREDDLNVSVVVSPNFDSVSQATDVEVGTDLVPSVTVKVTLQNRVILQKAKLSVYVQPPLELTCDQFTFEFMTPDLTRTVSFSVYLKRSYTPSELEGNAVVSYSRPTDRNPDGIPRVIQCKFRLPLKLICLPGQPSKTASHKITIDTNKSPVSLLSLFPGFASQSDDDQVNVMGFHFLGGARITVLASKTSQRYRIQSEQFEDLWLITNELILRLQEYFEKQGVKDFACSFSGSIPLQEYFELIDHHFELRINGEKLEELLSERAVQFRAIQRRLLARFKDKTPAPLQHLDTLLDGTYKQVIALADAVEENQGNLFQSFTRLKSATHLVILLIALWQKLSADQVAILEAAFLPLQEDTQELGWEETVDAAISHLLKTCLSKSSKEQALNLNSQLNIPKDTSQLKKHITLLCDRLSKGGRLCLSTDAAAPQTMVMPGGCTTIPESDLEERSVEQDSTELFTNHRHLTAETPRPEVSPLQGVSE
partner: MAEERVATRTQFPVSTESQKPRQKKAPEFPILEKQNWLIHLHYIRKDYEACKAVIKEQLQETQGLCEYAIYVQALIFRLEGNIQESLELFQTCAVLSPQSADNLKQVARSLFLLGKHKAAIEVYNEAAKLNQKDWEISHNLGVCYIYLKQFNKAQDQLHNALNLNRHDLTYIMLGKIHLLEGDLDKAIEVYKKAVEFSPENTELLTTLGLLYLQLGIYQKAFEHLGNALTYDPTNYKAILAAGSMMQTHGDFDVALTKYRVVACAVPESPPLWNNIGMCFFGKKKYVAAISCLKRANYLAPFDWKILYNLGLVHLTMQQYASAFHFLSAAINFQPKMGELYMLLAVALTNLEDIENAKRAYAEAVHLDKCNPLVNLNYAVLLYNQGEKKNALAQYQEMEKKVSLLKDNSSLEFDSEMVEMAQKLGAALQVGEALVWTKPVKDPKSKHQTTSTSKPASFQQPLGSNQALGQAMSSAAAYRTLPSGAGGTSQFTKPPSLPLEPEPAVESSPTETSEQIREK

Variants of: B1
Settings: with bbs4_human BBS4, Q96RK4

Row | Variant | effect of a mutation on the interaction
1 | K532A | with no effect
2 | Q574A | with no effect
3 | S568K | with no effect
4 | P464K | with no effect
5 | F476K | with no effect
6 | S423A | with no effect
7 | Q569A | with no effect
8 | T434K | with no effect
9 | E607K | with no effect
10 | Q602E | with no effect
11 | A567E | with no effect
12 | I519A | with no effect
13 | V577A | with no effect
14 | K594E | with no effect
15 | S418A | with no effect
16 | R493K | with no effect
17 | L536E | with no effect
18 | T543K | with no effect
19 | T512E | with no effect
20 | G502K | with no effect
21 | Y599E | with no effect
22 | L411A | with no effect

Row | Variant | effect of a mutation on the interaction
23 | L411K | with no effect
24 | E466K | with no effect
25 | Q447E | with no effect
26 | Q447K | with no effect
27 | Y508A | with no effect
28 | L611C | disrupting interaction strength
29 | C469K | with no effect
30 | F582E | with no effect
31 | V590A | with no effect
32 | N553E | with no effect
33 | E406K | with no effect
34 | R598A | with no effect
35 | S439A | with no effect
36 | K454A | with no effect
37 | S458K | with no effect
38 | P520K | with no effect
39 | K542E | with no effect
40 | S425K | with no effect
41 | L562K | with no effect
42 | D573E | with no effect
43 | A592E | with no effect

Continued, values first:

Row | effect of a mutation on the interaction | Variant
44 | disrupting interaction strength | I617T
45 | with no effect | I617A
46 | with no effect | L727E
47 | with no effect | Q883E
48 | with no effect | C843K
49 | with no effect | E769A
50 | with no effect | Y645K
51 | with no effect | P840E
52 | disrupting interaction strength | Q791L
53 | with no effect | T871A
54 | with no effect | M839K
55 | with no effect | F624A
56 | with no effect | Y623A
57 | with no effect | H652K
58 | disrupting interaction strength | L699K
59 | with no effect | L882K
60 | with no effect | L793K
61 | disrupting interaction strength | E654K
62 | with no effect | K803A
63 | with no effect | I640E
64 | with no effect | I846K
65 | with no effect | S635E
66 | with no effect | N716A

Row | effect of a mutation on the interaction | Variant
67 | with no effect | G842K
68 | with no effect | S667A
69 | with no effect | H867A
70 | disrupting interaction strength | L611F
71 | with no effect | V885K
72 | with no effect | Q717A
73 | with no effect | P758E
74 | with no effect | S849E
75 | with no effect | A730E
76 | with no effect | Q621K
77 | with no effect | Q621A
78 | with no effect | L737E
79 | with no effect | F673A
80 | with no effect | L752K
81 | with no effect | E873A
82 | with no effect | L863E
83 | with no effect | T782K
84 | with no effect | S820A
85 | with no effect | T731A
86 | with no effect | F632K
87 | disrupting interaction strength | K685E
88 | disrupting interaction strength | L666E
89 | with no effect | V671A
